According to patent US20260069689A1 (Regeneron, published 2026):
Residue numbers refer to the chain shown, from its start.

B1: mAb14286 (antibody, V domains shown)
VH: QVQLVQSGAEVKKPGASVKVSCKASGYTFTDYFIHWVRQAPGQGLEWMGWINPTSGGTNYAQKFRGRVTMTRDTSISTAYVELSRLRSDDTALYYCARDLPFYSDTKQFDYWGQGTLVTVSS
VL: QSALTQPASVSGYPGQSITISCTGTSSDVGGYNYVSWYQQHPGKAPKLMIFDVSNRPSGVSNRFSGSKSGNTASLTFSGLQAEDEADYYCSSYTSSSTLVFGGGTKLTVLG
B2: mAb14282 (antibody, V domains shown)
VH: QVQLVQSGAEVKKPGASVKVSCKASGYIFTDHYMHWVRQAPGQGLEWMGWINPNSGATNYAQNFQGRVTMTRDTSIITVYMELSRLRSDDTAVYYCARDSSPYMIRYTMDVWGQGTTITVSS
VL: QSALTQPASVSGSPGQSITISCTGTSSDVGSYNLVSWYQQHPGKAPKLMIYELTKRPSGVSNRFSGSKSGNTASLTISGLQAEDEADYYCSSYRGSVTDVVFGGGTKLTVLG
B3: mAb14313 (antibody, V domains shown)
VH: EVQLVESGGGLVQPGRSLRLSCVASGFTFDDSAMHWVRQPPGKGLEWVSGISWNSGIIGYAESVKGRFIISRDNAKNSLFLHMRGLRPEDTAVYYCARDRLELSYYYYGMDVWGQGTTVTVSS
VL: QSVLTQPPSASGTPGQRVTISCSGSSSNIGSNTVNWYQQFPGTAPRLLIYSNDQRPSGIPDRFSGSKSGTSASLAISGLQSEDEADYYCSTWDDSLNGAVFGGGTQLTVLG
B4: mAb14256 (antibody, V domains shown)
VH: QVQLQESGPGLVKPSETLSLTCTVSGGSISSHYWSWIRQPPGKGLEWIGYIYYSGSSNYNPSLKSRVTISVDTSKNQFSLKLNSVTAADTAVYYCARHYDILTGFDWFDPWGQGTLVTVSS
VL: QSVLTQPPSVSGAPGQRVTISCTGSSSNIGTHYDVHWYQQLPGTAPKLLIYGNSNRPSGVPDRFSGSKSGTSASLAITGLQAEDEADYYCQSFDNSLTAPYVFGTGTKVTVLG
B5: mAb14247 (antibody, V domains shown)
VH: QITLKESGPTLVKPTQTLTLTCTFSGFSLSTSAVGVGWIRQPPGKALEWLALIYWDDDKRYSPSLKSRLTITKDTSKNQLVLTMTNVDPVDTATYYCAHHTIQLIFDYWGQGTLVTVSS
VL: QSALTQPASVSGSPGQSITISCTATSSDVGNYNYVSWYQQHPGKAPKLMIYEVSNRPSGVSNRFSGSKSGNTASLTISGLQAEDEADYYCSSYTSSSTPLVFGGGTKLTVLG
B6: mAb14232 (antibody, V domains shown)
VH: B5 VH with T31A, A33G, L80V, V87M, H99Q, T101K, I102V, Q103A, L104T
VL: QSALTQPPSASGSPGQSVTISCTATSSDVGNYNYVSWYQQHPGKAPKLMIYEVTKRPSGVPDRFSGSKSGNTASLTVSGLQAEDEADYYCSSYAGSWGVFGGGTKLTVLG
B7: mAb14281 (antibody, V domains shown)
VH: QVQLVQSGADVKKPGASVKVSCKTSGYIFTGYYIHWVRQAPGQGLEWMGWINPNSGGTNSAQKFQGRVTMTRDTSISTVYMELSRLRSDDTAVYYCAKSNSFSVLDYNFDYWGQGTLVTVSS
VL: SSELTQDPAVSVALGQTVRITCQGDSLRSYYASWYQQKPGQAPVLVIYDKNNRPSGIPDRFSGSSSGNTASLTITGAQAEDEADYYCNSRDSSRNHLVVFGGGTKLTVLG
B8: mAb14230 (antibody, V domains shown)
VH: EVQLVESGGGLIQPGRSLRLSCAASGFTFDDYAMHWVRQAPGKGLEWVSGISWNSVSIDYADSVKGRFTISRDNAKNSLYLQMTSLTVEDTALYYCAKAFGYETLTGSDYFAYWGPGTLVTVSS
VL: EIVLTQSPGTLSLSPGERATLSCRASQTVISTYLAWYQQKPGQSPRLLIYGASSRATGIPDRFSGSGSGTDFTLTISRLEPEDFAVYYCQQYGSSPQLTFGGGTKVEIKR
B9: mAb13458 (antibody, V domains shown)
VH: EVQLVESGGGLVQPGRSLRLSCAASGFTFDDYAMHWVRQAPGKGLEWVSGISWNSGSIGYADSVKGRFTISRDNAKNSLYLQMNSLRAEDTALYYCAKDIGITTPYWGQGTLVTVSS
VL: AIQMTQSPSSLSASVGDRVTITCRASQDIRNDLGWYQQKPGKAPKLLIYSASSLQTGVPSRFSGSGSGTDFTLTISSLHPEDFATYYCLQDYWYTWTFGQGTKVEIKR
B10: mAb14257 (antibody, V domains shown)
VH: EVQLVESGGGLVQPGGSLRLSCAASGFTVSRSYMNWVRQAPGKGLEWVSVVFTGGTTKHTDSVKGRFTISRDNSMNTLYLQMNSLRPEDTAVYYCARVAIVETTGAFDIWGQGTMVTVSS
VL: QSVLTQPPSVSGAPGQRVTISCTGTSSNIGADFDVHWYQQFPGTAPKLLIYGHTNRPSGIPDRFSGSKSGTSASLAITGLQAEDEADYYCQSYDSSLSGSVVFGGGTKLTVLG
B11: mAb14315 (antibody, V domains shown)
VH: QVQLVQSGAEVKKPGSSVKVSCKASGDTFSTYAINWVRQAPGQGLEWMGRFIHIFGTANYAQKFQGRVTITADESTSTAYMELRSLRSEDTAVYYCARDGVDYGDYRPDYWGQGTLVTVSS
VL: EIVLTQSPGTLSLSPGERATLSCRASQSVSSNYLAWYQQKPGQAPRLLIYGASSRATGIPERFSGSGSGTDFTLTISRLEPEDFAVYYCQQYGSSLYTFGQGTKLEIKR
B12: mAb14255 (antibody, V domains shown)
VH: QVQLQESGPGLVKPSETLSLTCTVSGGSISGYYWSWIRQPPGKGLDWIGYIYYRGNTNYNPSLKSRVTISVDTSNNQFSLKLSSVTAADTAVYYCARYGEGYGDASGYHFDYWGQGTLVTVSS
VL: QSALTQPASVSGSPGQSITISCTGTSSDVGSYNLVSWYQQHPGKAPKLMIYEDSKRPSGVANPFSGSKSGNTASLTISGLQAEDEADYYCSSYAGSSTWVFGGGTKLTVLG
B13: mAb14285 (antibody, V domains shown)
VH: QVQLVQSGAEVKKPGASVKVSCKASGYTFTGYFIHWVRQAPGQGLEWMGWISPISGGTNYAQKFQGRVTVTRDTSITTAYMELSRLTSDDTAVYHCAREGGTWKGDFDYWGQGTLVTVSS
VL: B12 VL with G30E, D53G, A61S, P63R
B14: mAb14292 (antibody, V domains shown)
VH: EVQLVESGGGLVQPGGSLRLSCVASGFAFSTYEMNWVRQAPGKGLEWVSYISSSGSTIYYADSVKGRLTISRDNVKNSLYLQMNSLRVEDTAIYYCARDAIRNNDILTDPATFDPWGQGTLVTVSS
VL: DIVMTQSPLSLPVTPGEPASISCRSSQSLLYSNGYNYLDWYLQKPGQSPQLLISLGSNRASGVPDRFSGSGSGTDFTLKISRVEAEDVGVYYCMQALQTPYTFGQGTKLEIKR
B15: mAb14280 (antibody, V domains shown)
VH: QVQLVQSGAEVKKPGASVRVSCKASGYTFTGNYIHWVRQAPGQGLEWMAWINPNSGGKNYAQKFQGRVTLTRDTSVNTAYMELSRLRSDDTAMYYCARDVNYNILTGPGGLWGQGTLVTVSS
VL: QSALTQPPSASGSPGQSVTISCTGTSSDVGGYNFVSWYQQHPGKAPKLMIYEVSKRPSGVPDRFSGSKSGNTASLTVSGLQAEDEADYYCSSYAGSNNFVFGTGTKVTVLG
B16: mAb14234 (antibody, V domains shown)
VH: QVQLVESGGGVVQPGRSLRLSCAASGFTFSSYGIHWVRQAPGKGLEWVAIIWYDGSEKYYADSVKGRFTISRDNSKNTLFLQMNSLEAEDTAVYYCARGPDLLTGYYNYFYYGMDVWGQGTTVTVSS
VL: QSVLTQPPSVSGAPGQRVTISCTGSSSNIGIGYDVHWYQQLPGTVPKLLIYGNTNRPSGVPDRFSGSKSGTSASLAITGLQAEDEADYYCQSYDSSLSSYVFGTGTKVTVLG

Each binder was assayed against T1, SARS-COV-2 RBD extracellular domain expressed with a C-terminal mouse IgG2a Fc (SARS-CoV-2) (assay: Biacore SPR, mAb captured on anti-hFc, 25 C).

Binder | Kd [nM] | koff [s⁻¹] | kon [M⁻¹ s⁻¹] | t½ [min]
B1 | 0.222 | 0.000655 | 2.95e+06 | 17.6
B2 | 0.186 | 0.000403 | 2.17e+06 | 28.7
B3 | 0.0422 | 9.97e-05 | 2.36e+06 | 116
B4 | 0.0638 | 0.000181 | 2.84e+06 | 63.7
B5 | 0.131 | 0.000156 | 1.19e+06 | 73.9
B6 | 0.878 | 0.00173 | 1.97e+06 | 6.7
B7 | 0.146 | 0.000213 | 1.46e+06 | 54.3
B8 | 0.142 | 0.000286 | 2e+06 | 40.5
B9 | 0.064 | 7.55e-05 | 1.18e+06 | 153
B10 | 0.0907 | 0.000254 | 2.81e+06 | 45.4
B11 | 0.0784 | 6.26e-05 | 799000 | 184
B12 | 0.0726 | 0.000159 | 2.19e+06 | 72.6
B13 | 0.0868 | 0.000502 | 5.78e+06 | 23
B14 | 33.6 | 0.0351 | 1.04e+06 | 0.3
B15 | 0.123 | 0.00037 | 3.02e+06 | 31.2
B16 | 0.119 | 0.000121 | 1.02e+06 | 95.2

The binders below were run against T1, SARS-COV-2 RBD extracellular domain … (assay: Biacore SPR, mAb captured on anti-hFc, 37 C).

Binder | Kd [nM] | koff [s⁻¹] | kon [M⁻¹ s⁻¹] | t½ [min]
B1 | 0.18 | 0.000528 | 2.94e+06 | 21.9
B2 | 0.247 | 0.000546 | 2.21e+06 | 21.1
B3 | 0.0582 | 0.000146 | 2.52e+06 | 78.9
B4 | 0.267 | 0.000473 | 1.78e+06 | 24.4
B5 | 0.127 | 0.00015 | 1.18e+06 | 77
B6 | 0.893 | 0.00188 | 2.1e+06 | 6.1
B7 | 0.271 | 0.000365 | 1.34e+06 | 31.7
B8 | 0.268 | 0.00049 | 1.82e+06 | 23.6
B9 | 0.0784 | 9.12e-05 | 1.16e+06 | 127
B10 | 0.121 | 0.000339 | 2.81e+06 | 34.1
B11 | 0.0903 | 7.91e-05 | 877000 | 146
B12 | 0.118 | 0.00025 | 2.12e+06 | 46.2
B13 | 0.231 | 0.00103 | 4.45e+06 | 11.2
B14 | 34.6 | 0.0644 | 1.86e+06 | 0.2
B15 | 0.264 | 0.000772 | 2.92e+06 | 15
B16 | 0.41 | 0.000402 | 980000 | 28.8
